Source: paper PMC7226629

Key:
[1] = molecular target: CCR5 (human (endogenous in SNU387, PLC/PRF-5, SK-HEP-1)) (UniProt P51681)
[2] = molecular target: CCR5 (human (endogenous in SNU387, PLC/PRF-5, SK-HEP-1)) (UniProt P51681); remark: listed apart in the source

Sequence of UniProt P51681 (P51681 whole entry): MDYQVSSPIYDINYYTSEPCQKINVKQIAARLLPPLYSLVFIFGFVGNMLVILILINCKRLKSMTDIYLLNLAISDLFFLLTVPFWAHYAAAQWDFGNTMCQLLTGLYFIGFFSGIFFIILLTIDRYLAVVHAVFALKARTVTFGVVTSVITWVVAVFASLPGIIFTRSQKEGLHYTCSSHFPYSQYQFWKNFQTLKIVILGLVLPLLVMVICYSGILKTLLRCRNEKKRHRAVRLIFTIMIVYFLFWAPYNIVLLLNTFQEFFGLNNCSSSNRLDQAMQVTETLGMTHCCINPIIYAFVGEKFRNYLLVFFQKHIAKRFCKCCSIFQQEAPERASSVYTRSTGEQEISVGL

## CCL5 recombinant protein (from UniProt P13501 24-91) (ligand)
[1]
  caspase-3 mRNA (qRT-PCR) in HCC cells: down-regulated with CCL5, higher with CCL5 plus maraviroc in two of the three cell lines: 0.5 fold
[2]
  Akt-1 mRNA (qRT-PCR) in PLC/PRF-5 cells treated with CCL5; diminished by maraviroc: 1.3 fold
  Akt-1 mRNA (qRT-PCR) in SK-HEP-1 cells treated with CCL5; diminished by maraviroc: 1.2 fold
  E-cadherin mRNA (qRT-PCR) in PLC/PRF-5 cells after exposure to maraviroc, compared to CCL5-treated cells: 0.3 fold
  E-cadherin mRNA (qRT-PCR) in SK-HEP-1 cells after exposure to maraviroc, compared to CCL5-treated cells: 0.8 fold
  beta-catenin mRNA (qRT-PCR) in PLC/PRF-5 cells treated with CCL5; diminished by maraviroc: 1.7 fold
  beta-catenin mRNA (qRT-PCR) in SK-HEP-1 cells treated with CCL5; diminished by maraviroc: 1.3 fold
